Measurements published in US20210363259A1 (Biogen, published 2021).

Key:
integrin αvβ6 [1] = molecular target: T1, integrin αvβ6 (human, UniProt P06756 31-1048; P18564 22-788); assay: potency assay, binding relative to reference standard; stability sample, 24 months at 2-8° C.
T1 construct: also called the antigen

integrin αvβ6 [2] = molecular target: T1, integrin αvβ6; assay: potency assay, binding relative to reference standard; stability sample, 3 months at 2-8° C.
integrin αvβ6 [3] = molecular target: T1, integrin αvβ6; assay: potency assay, binding relative to reference standard; stability sample, 12 months at 2-8° C.
integrin αvβ6 [4] = molecular target: T1, integrin αvβ6; assay: DELFIA blocking assay, binding relative to reference standard; stability sample, 0 months at 2-8° C.
integrin αvβ6 [5] = molecular target: T1, integrin αvβ6; assay: DELFIA blocking assay, binding relative to reference standard; stability sample, 18 months at 2-8° C.
integrin αvβ6 [6] = molecular target: T1, integrin αvβ6; assay: potency assay, binding relative to reference standard; stability sample, 6 months at 2-8° C.
integrin αvβ6 [7] = molecular target: T1, integrin αvβ6; assay: DELFIA blocking assay, binding relative to reference standard; stability sample, 1 month at 2-8° C.
integrin αvβ6 [8] = molecular target: T1, integrin αvβ6; assay: potency assay, binding relative to reference standard; stability sample, 9 months at 2-8° C.

T1 sequence (P06756 31-1048, chain 1 of 2): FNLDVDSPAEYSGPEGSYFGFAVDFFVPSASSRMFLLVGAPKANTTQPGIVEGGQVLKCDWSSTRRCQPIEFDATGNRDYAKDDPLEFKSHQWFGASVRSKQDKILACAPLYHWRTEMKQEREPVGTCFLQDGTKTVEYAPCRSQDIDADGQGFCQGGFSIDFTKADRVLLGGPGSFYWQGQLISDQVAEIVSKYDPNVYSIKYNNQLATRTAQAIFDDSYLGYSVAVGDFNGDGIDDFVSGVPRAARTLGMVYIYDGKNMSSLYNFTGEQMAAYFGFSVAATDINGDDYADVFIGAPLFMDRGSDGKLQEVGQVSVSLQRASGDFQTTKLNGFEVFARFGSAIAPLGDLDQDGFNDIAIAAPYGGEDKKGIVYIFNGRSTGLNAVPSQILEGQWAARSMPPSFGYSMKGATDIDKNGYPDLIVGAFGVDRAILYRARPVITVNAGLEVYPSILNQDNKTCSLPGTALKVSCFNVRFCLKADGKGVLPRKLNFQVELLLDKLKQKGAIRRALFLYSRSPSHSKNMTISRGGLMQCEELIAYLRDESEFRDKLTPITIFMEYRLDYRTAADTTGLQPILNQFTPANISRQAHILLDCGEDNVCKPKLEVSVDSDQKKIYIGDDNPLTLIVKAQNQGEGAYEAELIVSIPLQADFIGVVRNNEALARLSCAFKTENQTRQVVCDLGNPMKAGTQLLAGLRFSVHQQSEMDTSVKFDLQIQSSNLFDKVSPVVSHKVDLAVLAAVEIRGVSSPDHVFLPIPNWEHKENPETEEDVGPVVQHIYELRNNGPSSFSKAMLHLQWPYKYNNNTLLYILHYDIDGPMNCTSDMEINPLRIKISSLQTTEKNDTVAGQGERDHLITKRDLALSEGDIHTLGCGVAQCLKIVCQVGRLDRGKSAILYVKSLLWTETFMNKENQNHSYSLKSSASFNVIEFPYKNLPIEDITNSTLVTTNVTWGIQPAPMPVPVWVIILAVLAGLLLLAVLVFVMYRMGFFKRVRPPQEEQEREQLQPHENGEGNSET
T1 sequence (P18564 22-788, chain 2 of 2): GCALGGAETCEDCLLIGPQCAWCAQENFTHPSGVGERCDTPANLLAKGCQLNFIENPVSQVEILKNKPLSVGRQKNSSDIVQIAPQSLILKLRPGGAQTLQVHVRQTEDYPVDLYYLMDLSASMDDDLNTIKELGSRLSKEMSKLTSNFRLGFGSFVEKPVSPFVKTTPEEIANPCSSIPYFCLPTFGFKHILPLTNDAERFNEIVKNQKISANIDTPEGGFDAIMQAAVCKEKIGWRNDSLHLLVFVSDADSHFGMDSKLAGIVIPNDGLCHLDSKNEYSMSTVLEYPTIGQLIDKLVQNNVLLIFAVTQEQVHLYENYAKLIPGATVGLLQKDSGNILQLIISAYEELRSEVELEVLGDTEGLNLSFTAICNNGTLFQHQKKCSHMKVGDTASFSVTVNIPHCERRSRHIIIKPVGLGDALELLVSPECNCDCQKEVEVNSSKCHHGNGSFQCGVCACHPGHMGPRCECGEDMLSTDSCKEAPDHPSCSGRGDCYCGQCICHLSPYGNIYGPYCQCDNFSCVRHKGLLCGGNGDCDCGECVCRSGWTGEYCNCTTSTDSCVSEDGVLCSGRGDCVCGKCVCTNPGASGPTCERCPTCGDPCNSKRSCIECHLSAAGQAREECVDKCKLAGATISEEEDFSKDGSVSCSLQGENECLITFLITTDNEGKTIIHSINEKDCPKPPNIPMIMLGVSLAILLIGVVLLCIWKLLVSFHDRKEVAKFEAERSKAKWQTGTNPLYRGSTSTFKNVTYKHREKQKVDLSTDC

B1: STX-100 (antibody, human IgG1, kappa, V domains shown)
VH: EVQLVESGGGLVQPGGSLRLSCAASGFTFSRYVMSWVRQAPGKGLEWVASISSGGRMYYPDTVKGRFTISRDNAKNSLYLQMNSLRAEDTAVYYCARGSIYDGYYVFPYWGQGTLVTVSS
VL: EIVLTQSPATLSLSPGERATLSCSASSSVSSSYLYWYQQKPGQAPRLLIYSTSNLASGIPARFSGSGSGTDFTLTISSLEPEDFAVYYCHQWSTYPPTFGGGTKVEIKR
notes: Humanized human IgG1/human kappa monoclonal antibody; It was tested as drug product in citrate/arginine/methionine/PS80 formulations; also called BG00011; BG11
- Potency, % Binding relative to Reference Standard (integrin αvβ6 [1]): 106%
- Potency, % Binding relative to Reference Standard (integrin αvβ6 [2]): 102%
- Potency, % Binding relative to Reference Standard (integrin αvβ6 [3]): 100%
- DELFIA Blocking - Binding relative to Reference Standard (integrin αvβ6 [4]): 101%
- DELFIA Blocking - Binding relative to Reference Standard (integrin αvβ6 [5]): 96%
- Potency, % Binding relative to Reference Standard (integrin αvβ6 [6]): 98%
- DELFIA Blocking - Binding relative to Reference Standard (integrin αvβ6 [7]): 100%
- Potency, % Binding relative to Reference Standard (integrin αvβ6 [8]): 95%
